± gives the standard deviation.

A short description of the series: protein stability index of a GFP-peptide fusion (GPS, HEK-293T) (PSI 1-6); higher = more stable. The following applies: c terminus: a fixed tail appended.
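Also: 24-mer peptide tiles fused after GFP, lentivirally expressed, FACS-sorted into six equal bins by GFP/DsRed ratio, decoded by Illumina sequencing, PSI is the read-weighted mean bin number.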

With PQESAILQLFHQDGTFSPVTLALF [CLCN6], the protein stability index turned out to be 2.45 ± 0.46 (treatment: DMSO) and 2.42 ± 0.32 (treatment: MLN4924 1 uM, 8 h).

On to PQGISPVSQHWATWALYNLVSVYP [ZER1], for which the protein stability index came out at 3 ± 0.57 (treatment: DMSO) and 2.88 ± 0.32 (treatment: MLN4924 1 uM, 8 h).

As to PQLVSSAREGSSEPWLPLTDGRSP [PLEKHN1], the protein stability index reads like this: (treatment: DMSO) 4.83 ± 0.25; (treatment: MLN4924 1 uM, 8 h) 4.58 ± 0.085.

For the sequence PQQTWASPAEVVDLTLDEDSRRKY [C18orf25], the protein stability index (treatment: DMSO) was found to be 5.1 ± 0.3 and the protein stability index (treatment: MLN4924 1 uM, 8 h) is 5.13 ± 0.14.

With PQVWREAATQVFFALGLGFGGVIA [SLC6A17], the protein stability index reads like this: (treatment: DMSO) 3.78 ± 0.85; (treatment: MLN4924 1 uM, 8 h) 3.4 ± 0.82.

With PRKVSTCTDHELENHSMYCVQCKM [TRIM9], the protein stability index by setting is: (treatment: DMSO) 4.53 ± 0.27; (treatment: MLN4924 1 uM, 8 h) 4.74 ± 0.33.

Take PRLFKEWNITKLSIEYDSEPFGKE [CRY1]: the protein stability index is 3.06 ± 0.33 (treatment: DMSO) and 3.46 ± 0.39 (treatment: MLN4924 1 uM, 8 h).

As to PRSCSSGPAGPYLLSKKGALQSRA [PLEKHN1], the protein stability index was 3.96 ± 0.52 (treatment: DMSO) and 4.29 ± 0.39 (treatment: MLN4924 1 uM, 8 h).

PSPPTSPPWGLGPGAGDPAPGIGP [MYCL] displayed a protein stability index (treatment: DMSO) of 4.7 ± 0.18 and a protein stability index (treatment: MLN4924 1 uM, 8 h) of 4.72 ± 0.069.

PSTLGRCKAFSTCVSHLIIVTVHY [OR10K2] displayed a protein stability index (treatment: DMSO) of 3.07 ± 0.41 and a protein stability index (treatment: MLN4924 1 uM, 8 h) of 2.89 ± 0.5.

For the sequence PVALLLAQHKDRSTQLEMQLEKPK [MNAT1], the protein stability index runs as follows: (treatment: DMSO) 3.84 ± 0.19; (treatment: MLN4924 1 uM, 8 h) 3.8 ± 0.12.

Turning to PVASSGEFFGSASQPAVELVSGSQ [CLINT1], the protein stability index is, setting by setting: (treatment: DMSO) 4.57 ± 0.16; (treatment: MLN4924 1 uM, 8 h) 4.82 ± 0.21.

For PVHLVDKLPLPSTLRSHLKSFSMA [RAB40A], the protein stability index (treatment: DMSO) was determined as 2.6 ± 0.085 and the protein stability index (treatment: MLN4924 1 uM, 8 h) is 2.63 ± 0.19.

On to PVMNGGVQTWTQPRLCYLVKEGGS [PDZK1], for which the protein stability index reads like this: (treatment: DMSO) 2.75 ± 0.23; (treatment: MLN4924 1 uM, 8 h) 3.09 ± 0.27.

Consider PVRTTNKISKQFVAPADVRRLLSY [ZSWIM9], for which the protein stability index is 2.44 ± 0.17 (treatment: DMSO) and 2.84 ± 0.13 (treatment: MLN4924 1 uM, 8 h).

Turning to PVVGSTRRLYEKKIFEYETQRRRL [EMD], the protein stability index runs as follows: (treatment: DMSO) 3.16 ± 0.25; (treatment: MLN4924 1 uM, 8 h) 3.18 ± 0.06.

As to PWKKCCFSGDGEYIVAGSARQHAL [RBBP5], the protein stability index turned out to be 2.14 ± 0.27 (treatment: DMSO) and 2.36 ± 0.22 (treatment: MLN4924 1 uM, 8 h).

On to QAFCCENDINILRVSNPGRLAELL [GADD45A], for which the protein stability index runs as follows: (treatment: DMSO) 2.74 ± 0.36; (treatment: MLN4924 1 uM, 8 h) 2.82 ± 0.34.

In the case of QAIIESCSRQFPEFQERARKRIRT [NOL4L], the protein stability index (treatment: DMSO) is 3.69 ± 0.27 and the protein stability index (treatment: MLN4924 1 uM, 8 h) stood at 4.09 ± 0.21.

As to QAKEELARMLREYQELMSLKLALD [KRT71], the protein stability index reads like this: (treatment: DMSO) 2.61 ± 0.37; (treatment: MLN4924 1 uM, 8 h) 2.77 ± 0.47.

Consider QALGTHRPVNKLAELQCEVAALRE [RASAL3], for which the protein stability index came out at 3.81 ± 0.38 (treatment: DMSO) and 3.75 ± 0.41 (treatment: MLN4924 1 uM, 8 h).

As for QAQAVQTEQAVALLRDRTGQQSDT [SCARA5], the protein stability index by setting is: (treatment: DMSO) 5.35 ± 0.34; (treatment: MLN4924 1 uM, 8 h) 5.19 ± 0.23.

Regarding QAQKDPKKDRPLARRKSELPQDPH [PPP2R5C], the protein stability index was found to be 5.12 ± 0.17 (treatment: DMSO) and 5.34 ± 0.17 (treatment: MLN4924 1 uM, 8 h).

As for QDCGFEHLVPVIEMWADQLTSLKD [CEP70], the protein stability index by setting is: (treatment: DMSO) 2.76 ± 0.39; (treatment: MLN4924 1 uM, 8 h) 2.94 ± 0.53.

Sequence QEAEEPKARVLRSKSLCHDEIENL [CDC25B] registered a protein stability index (treatment: DMSO) of 5.37 ± 0.089 and a protein stability index (treatment: MLN4924 1 uM, 8 h) of 5.57 ± 0.23.

For QECLKQLAIKKQQHIDNITQIEDA [TRIM14], the protein stability index runs as follows: (treatment: DMSO) 4.93 ± 0.19; (treatment: MLN4924 1 uM, 8 h) 4.72 ± 0.22.

For the sequence QELPPYNGFGLVEDSAQNCFALIP [EFHC1], the protein stability index turned out to be 3.38 ± 0.18 (treatment: DMSO) and 3.4 ± 0.24 (treatment: MLN4924 1 uM, 8 h).

On to QERERVLTHFSRRYCQCNPDDSTS [PSD2], for which the protein stability index runs as follows: (treatment: DMSO) 3.88 ± 0.14; (treatment: MLN4924 1 uM, 8 h) 3.93 ± 0.14.

Take QGDKAIREQGPREQEPELSFLKQK [PBXIP1]: the protein stability index (treatment: DMSO) is 5.44 ± 0.33 and the protein stability index (treatment: MLN4924 1 uM, 8 h) was found to be 5.42 ± 0.16.

(Values after the supplement of paper PMC10567573.)
